Target: hemagglutinin (HA) of A/California/4/09 (H1N1) on pseudotyped lentivirus (Influenza virus A/California/04/2009 (H1N1)) (UniProt P26140)
Test: cell-based or functional assay

Substance	Neutralization IC50, lentivirus pseudotype neutralization assay [µg/mL]
monoclonal antibody FI6v3 (anti-HA stem region)	0.13
monoclonal antibody 441D6	0.16
monoclonal antibody CH65 (anti-receptor binding site of HA)	6.25

— US20220054419A1
